Test system: Saccharomyces cerevisiae
Experiment: transcriptional activation domain activity (GFP:mCherry ratio, weighted mean of sorted bins, harmonized to initial dataset scale) (arbitrary fluorescence ratio units); higher = stronger transcriptional activation
Conditions: beta-estradiol 1 µM; induction time 4 h
Outline: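 For this assay, yeast diploids with a GFP reporter carried barcoded protein tiles at URA3, each fused to an estradiol-inducible synthetic transcription factor. Induction was a 1:5 dilution into SC with 1 uM beta-estradiol for 4 hours at 30 °C, followed by sorting into 8 bins by GFP:mCherry ratio and barcode sequencing. Tiles under 50 reads were dropped, and activation activity was calculated as the read-weighted mean of bin median fluorescence, averaged across barcodes and linearly mapped onto the initial dataset scale.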

Sequence	transcriptional activation domain activity
RVEEEGKSGVPAGDRFCGISLRPGILTDGEAGGVKVGKIGTGGKTARATVAES	22900
GTGEEEEETTKHIVRKRGGGRGGRGKQESEQEWESEEEEEGTGEEEETTKQRT	39000
IAAAGSNAASGHPDAKRAKTGASGSRAGSPSGSPPGSKPASRAGSPGAPRVPA	16900
MFVFHMFVFYFVCLFFICLSFILYALFFMSYFYFLLVYFDICFLFLYLFLIFI	15300
VENPVTDDNGNLKLELPDNLDNADFSKLLEFDAKNDEALFNSNELLSHTMDPV	94700
IMCQWVKNLKERLLKMPPALRICLADHVLKFVIPKLHILGHLKLCQELFSLLY	47100
MYSRIFIGLSFFLISFFISIIFLFICKEHSFSPIGFFLTRFLLFHVFSLFFTF	62800
AYTDEDDAHQIRRKQLSMVLRGMPSVFDSLTHARVYLELIFRQMEHYLYVAAT	42200
SDGEESDAGAKERKRKKKRRAKDSESESSDEEEKRKKTKRSKSKSKRRSPSPS	25700
KPHGKQAAESTRGQSTTGTNSTTSNSSRASGSRRQETDRGKEGKSNKASSSSG	21900
EKGEGDKNRRGRRRGGRGRGGGGDKDKEKDKEGGGGGGRGERKTEGSGGISAQ	42000
FAELRRARAGCFFFFFFLFFPFFSFFYFFLLFLFLFLPPFPFLSFPFFSLCVL	56100
KAKAGADGDAAPKKKKAASKKDSNGSDAEDSDGEAKPKPKLKKKAAAAGKAKA	29400
CFSILFSRFAGPSIYLGMRILIMLLYVTLTLWTPWLFYFWVSILSLCIAPFLF	44300
MFCLRSWLPLLFIPTNAPPVFVFLFFACTFFLSRPCVYCSFLLLILFFTSCYW	52700
LNILTSVWAVPVVITLIQALLVMRVCMLFCFNLRVTLCLWALLFASATVSVVL	51200
SSRYDPVKSVFLPLDPMPLPRDFFFSFALILFCPSPFYTSLLSLYLISPLLFP	60800
FIPLQAGIKQLIGRLSLPRHPLSNLNHLIPRHIVFTDCIWLILRQLSTLKHWA	57800
MNKLFFKLRICVLIKIMLLQFVIIATIYNCNYFIIIVMYICLLLLLPFKLVYD	52100
MHTPFLFLPPCPSRTRLLLFFSLILFLLVLVPAPCHAQPWNLGTLFFIFWLAS	52700
VPLCIAVLLLLAPHPSILHVLLNYHYLTLHSTRYFLAHLFVIYTISFLAFSSL	47400

Sequence	transcriptional activation domain activity
VRVRVRVQGREQVQVQVRELHPEQGHPHQEQEPLHLAREHHPELHQQKDQEHL	52900
ARAAAQNDDGTPKKGRGRPRKAAAAAATSDEEPAATTPKEPKKRGRKPKAVEP	36000
ALRHRYIIGTSLCRLFIPLYFFACPYNTLFQDPNPLVWILLLYVSAQALLLLL	63900
RLLNALLLPPYLEQIMYFGTLACFDAWLYTFTILPMRFISAVGVLVKWWLYLI	47500
RSKAKDDDRSSDESDSKSSKSNKSKRSKHNNDSDSENGSSDEDRGSKRRKKSK	23000
AKKAKQEATTEGGEEGSTGKTAKAKETPPTEQKEGGEKKAKATKARGKAGKEA	27300
KESPILVGLICIFNASTFLQMMFYAAISLPLNEDACFGVNFVQTLLWHISFCT	74000
FGESCAGVLPVTMYDNRLNRHSEHHGKNVYEKMVSGRYLGELVRWILVELLDR	54500
ANLYVVLTLYSYTWIQVLIVSLSILLYFVFIAIYSQFNTFIFAGHIRLFGNGL	57500
NRRDASPEPHHKGKGKGKKNNRREAEADAEIEVREPHHKGKGKGKKNNAREAE	21700
DRNYKRVARQIGFTIDRKHGDDLRHFPIERARLELIWPLLGFGLSCYLCYGWV	49600
MCFFSFFLFLLRIWLLFCLLLSIPLGFRMRSWGVPTAFVTILHFSLVMHLITV	59900
NQFSKPQVWSVGVFWWSIWLSCVWLGWWLCRLASFLAPRVLKFTIAIWMLVIY	40800
MGFFFVFYLLLSHCCFSLWVRGFGFFLSHPVFLFYILGGFCLVCFFPFFFPIN	48900
PLEKLMCLRTSLSLLSAAADKYMQENRLTVFHTSVASDDLILLLACALTQTHL	50200
CDEHINMKEKEPEKDETPAADGAAKEEEKKPETKPDDTFQAFVVIAVALISMG	27600
MRDGKQGMREKKRKEEGESKSEKKNGKGGRMGKRGGKGKGRKREEQRRVGIEK	28100
LLYVMALLMWLFAIAILFPPSALTVVRHDFLEQIPQVVPNLDVAYGRNIEGVK	41800
MGYCFFLYIYIPFTLLFSNTCRLVGVFLSFYICMIGYSLLWLPNLWLAFFLIN	37700
RRRRRHEEGGRGGDRSRGRDGERSSTRHEERRHRSRDRRDDRDRDRGSERRGH	44500
IHQASIAHHPAQHPQRKAHQHSRGGARPQHESQEATRRLGPRHPAHVAALHRR	30500
